Test results from US20090291081A1 (AbbVie / Abbott, published 2009).

T1: human IL-1α (human, UniProt P01583 113-271)
T1 sequence (looked up): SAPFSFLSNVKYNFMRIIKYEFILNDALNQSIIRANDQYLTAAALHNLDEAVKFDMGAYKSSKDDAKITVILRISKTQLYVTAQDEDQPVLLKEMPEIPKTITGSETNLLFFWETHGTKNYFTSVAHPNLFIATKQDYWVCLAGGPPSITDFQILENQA

T2: human IL-1α (human, UniProt P01583 113-271)
T2 sequence (looked up): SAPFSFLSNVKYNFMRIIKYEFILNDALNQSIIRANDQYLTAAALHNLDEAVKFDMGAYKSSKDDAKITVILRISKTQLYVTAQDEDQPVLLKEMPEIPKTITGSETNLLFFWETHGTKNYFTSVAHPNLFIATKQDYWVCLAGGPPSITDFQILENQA


How the values were obtained:
[1] = target: T1, human IL-1α; assay: cell-based or functional assay
[2] = target: human IL-1β (human, UniProt P01584 117-269); assay: cell-based or functional assay
[3] = target: T2, human IL-1α; assay: cell-based or functional assay; remark: listed apart in the source
[4] = target: T2, human IL-1α; assay: Table 62 IC50; RBA presumed
[5] = target: T2, human IL-1α; assay: Table 62 KD; BIAcore presumed

| Binder | Fab IL-1α ND10 [1] [nM] | Fab IL-1β ND10 [2] [nM] | ND50 [3] [nM] | IC50 [4] [nM] | Kd [5] [nM] |
| --- | --- | --- | --- | --- | --- |
| Fab ABT1-96/ABT2-42 (Fab, V domains shown) VH: EVQLLESGGGLVQPGGSLRLSCAASGFTFNQYNMFWVRQAPGKGLEWVSVISGSGRFTYADSVKGRFTISRDNSKNTLYLQMNSLRAEDTAVYYCAKGWWRRDPPFDYWGQGTLVTVSS VL: DIQMTQSPSSLSASVGDRVTITCRASQYIEKWLTWYQQKPGKAPTLLIYRGSLLQSGVPRFSGSGSGTDFTLTISSLQPEDFATYYCQQTEYWPFTFGQGTKVEIKR | 3 | 10 | – | – | – |
| Fab ABT1-122/ABT2-108 (Fab, V domains shown) VH: EVQLLESGGGLVQPGGSLRLSCAASGFTFAEYTMMWVRQAPGKGLEWVSRIGQDGKNTYYADSVKGRFTISRDNSKNTLYLQMNSLRAEDTAVYYCAKYTGRVGVHHLFDYWGQGTLVTSS VL: DIQMTQSPSSLSASVGDRVTITCRASQPIWTELNWYQQKPGKAPKLLIYGSSSLQSGVPRFSGSGSGTDFTLTISSLQPEDFATYYCQQFAYFPATFGQGTKVEIKR | 3 | 50 | – | – | – |
| Fab ABT1-141/ABT2-108 (Fab, V domains shown) VH: EVQLLESGGGLVQPGGSLRLSCAASGFTFAEYTMMWVRQAPGKGLEWVSRIGQDGKNTYYADSVKGRFTISRDNSKNTLYLQMNSLRAEDTAVYYCAKYTGRVGVHHLFDYWGQGTLVTSS VL: DIQMTQSPSSLSASVGDRVTITCRASQWIQKQLAWYQQKPGKAPKLLIYSSSYLQSGVPRFSGSGSGTDFTLTISSLQPEDFATYYCQQHLRVPFTFGQGTKVEIKR | 10 | 15 | – | – | – |
| Fab ABT1-96/ABT2-13 (Fab, V domains shown) V domain 1: EVQLLESGGGLVQPGGSLRLSCAASGFTFNQYNMFWVRQAPGKGLEWVSVISGSGRFTYADSVKGRFTISRDNSKNTLYLQMNSLRAEDTAVYYCAKGWWRRDPPFDYWGQGTLVTVSS V domain 2: EVQLLESGGGLVQPGGSLRLSCAASGFTFRDYVMYWARQAPGKGLEWVSRIDPMGSSTYYADSVKGRFTISRDNSKNTLYLQMNSLRAEDTAVYYCAKPEGNFDYWGQGTLVTVSS | 0.9 | 80 | – | – | – |
| ABT1-95-4 (other, VK dAb) VL: DIQMTQSPSSLSASVGDRVTITCRASQPIVRNLRWYQQKPGKAPKLLIYSSSYLQSGVPSRFSGSGSGTDFTLTISSLQPEDFATYHCQQGYRWPVTFGQGTKVEIKR | – | – | 2 | 0.7 | 1.5 |
| ABT1-95-6 (other, VK dAb) VL: DIQMTQSPSSLSASVGDRVTITCRASQPIQGNLRWYQQKPGKAPKLLIYSSSYLESGVPSRFSGSGSGTDFTLTISSLQPEDFATYHCQQGYRWPVTFGQGTKVEIKR | – | – | 1 | 0.8 | 2.1 |
| ABT1-95-8 (other, VK dAb) VL: DIQMTQSPSSLSASVGDRVTITCRASQPIQGNLRWYQQKPGKAPKLLIYSSSYLERGVPSRFSGSGSGTDFTLTISSLQPEDFATYHCQQGYRWPVTFGQGTKVEIKR | – | – | 1 | 0.8 | 2.1 |
| ABT1-95-11 (other, VK dAb) VL: DIQMTQSPSSLSASVGDRVTITCRASQPIQGNLRWYQQKPGIAPKLLIYSSSYLERGVPSRFSGSGSGTDFTLTISSLHPEDLATYHCQQGYRWPVTFGQGTKVEIKR | – | – | 0.3 | 0.9 | 1.1 |
| ABT1-95-13 (other, VK dAb) VL: DIQMTQSPSSLSASVGDRVTITCRASQPIVRNLRWYQQKPGKAPKLLIYSSSYLERGVPSRFSGSGSGTDFTLTISSLQPEDFATYHCQQGYRWPVTFGQGTKVEIKR | – | – | 0.12 | 0.3 | 0.9 |
| ABT1-95-14 (other, VK dAb) VL: DIQMTQSPSSLSASVGDRVTITCRASQPIVKNLRWYQQKPGKAPKLLIYSSSYLERGVPSRFSGSGSGTDFTLTISSLQPEDFATYHCQQGYRWPVTFGQGTKVEIKR | – | – | 0.25 | 0.3 | 1.2 |
